Source: patent US6998106

Columns and labels:
[1] = target: EGFRvIII (form used in the assay not stated) (UniProt P00533); assay: surface plasmon resonance
[2] = target: EGFRvIII (mutant epidermal growth factor receptor) expressed by the U87MGΔEGFR cell line (UniProt P00533); assay: binding of labeled mAb to EGFRvIII-positive tumor xenograft homogenate, Lindmo method (per Example 2)
[3] = target: EGFRvIII (mutant epidermal growth factor receptor) expressed by the U87MGΔEGFR cell line (UniProt P00533); assay: binding of radiolabeled mAb to U87MGΔEGFR cells (Scatchard analysis per Example 2)
[4] = target: EGFRvIII (form used in the assay not stated) (UniProt P00533); assay: SIPC-labeled scFv; immunoreactive fraction, antigen source not stated
[5] = target: EGFRvIII (form used in the assay not stated) (UniProt P00533); assay: SIPC-labeled scFv; method not stated

L8A4 scFv dimer with a 5 amino acid linker between the VL and VH domains
Ka [1]: 5.5e+09 M⁻¹

^211 At-labeled L8A4 (anti-EGFRvIII mAb L8A4 labeled with N-succinimidyl 5-[^211 At]astato-3-pyridinecarboxylate, SAPC) (antibody)
immunoreactive fraction [2]: 69 to 89% | Ka [3]: 9.7e+08 M⁻¹

scFv monomer based on the L8A4 variable region, labeled with SIPC
immunoreactive fraction [4]: 65 to 80% | Ka [5]: 1.5e+08 M⁻¹
